What all share (assay): cryo-EM structure
Experiment [1] deals with T1, LptF (E. coli K-12, UniProt P0AF98).
T1 sequence: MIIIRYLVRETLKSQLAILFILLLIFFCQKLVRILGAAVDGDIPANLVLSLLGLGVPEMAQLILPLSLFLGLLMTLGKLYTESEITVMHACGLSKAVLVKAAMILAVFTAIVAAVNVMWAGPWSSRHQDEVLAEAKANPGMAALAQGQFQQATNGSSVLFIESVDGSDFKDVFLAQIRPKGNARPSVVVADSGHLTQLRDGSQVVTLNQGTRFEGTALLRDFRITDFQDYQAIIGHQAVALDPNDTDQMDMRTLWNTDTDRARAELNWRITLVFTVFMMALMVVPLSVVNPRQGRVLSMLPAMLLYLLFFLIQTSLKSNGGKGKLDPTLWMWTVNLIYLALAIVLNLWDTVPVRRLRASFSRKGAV

Experiment [2] has as its target T1, LptF. This is another data set of the same source.
The target of another experiment is T2, LptG (E. coli K-12, UniProt P0ADC6).
T2 sequence: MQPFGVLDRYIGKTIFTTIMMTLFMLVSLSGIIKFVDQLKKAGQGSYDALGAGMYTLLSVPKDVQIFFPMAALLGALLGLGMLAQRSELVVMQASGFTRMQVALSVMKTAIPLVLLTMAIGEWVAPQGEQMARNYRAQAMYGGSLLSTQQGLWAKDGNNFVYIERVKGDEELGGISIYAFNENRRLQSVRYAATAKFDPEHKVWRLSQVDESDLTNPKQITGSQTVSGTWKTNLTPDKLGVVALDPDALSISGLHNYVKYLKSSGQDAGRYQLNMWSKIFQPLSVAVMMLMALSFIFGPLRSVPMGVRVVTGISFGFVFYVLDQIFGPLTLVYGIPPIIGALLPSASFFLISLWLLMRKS

Like-named read-outs stand apart in the source and are kept apart here.

B1: LptC (natural protein)
chain: MSKARRWVIIVLSLAVLVMIGINMAEKDDTAQVVVNNNDPTYKSEHTDTLVYNPEGALSYRLIAQHVEYYSDQAVSWFTQPVLTTFDKDKIPTWSVKADKAKLTNDRMLYLYGHVEVNALVPDSQLRRITTDNAQINLVTQDVTSEDLVTLYGTTFNSSGLKMRGNLRSKNAELIEKVRTSYEIQNKQTQP
For B1, the binding result with LptF [1] is “binds”.

B2: LptB (natural protein)
chain: MATLTAKNLAKAYKGRRVVEDVSLTVNSGEIVGLLGPNGAGKTTTFYMVVGIVPRDAGNIIIDDDDISLLPLHARARRGIGYLPQEASIFRRLSVYDNLMAVLQIRDDLSAEQREDRANELMEEFHIEHLRDSMGQSLSGGERRRVEIARALAANPKFILLDEPFAGVDPISVIDIKRIIEHLRDSGLGVLITDHNVRETLAVCERAYIVSQGHLIAHGTPTEILQDEHVKRVYLGEDFRL
Regarding B2, the binding result with LptF [2] and with LptG was “binds” throughout.

For the origin of these results see article PMC6532066 (Nature, 2019).
